Measured values published in article PMC12533313 (2025).

Target: α‐synuclein preformed fibrils (UniProt P37840 1-140)
Assay: SPR

B1: Recombinant mouse 24p3R protein (receptor)
chain: MPSARFGRRGIVLLTLGLVGPCGVGGAAAGSSTGIMALRFLLGFLLAGVDLGVYLMRLELCDPTQRLRVALAGELVGVGGHFLFLGLALVSKDWRFLQRMITAPCILFLFYGWPGLFLESARWLIVKRQIEEAQSVLRILAERNRPHGQMLGEEAQEALQELENTCPLPATSTFSFASLLNYRNIWKNLLILGFTNFIAHAIRHCYQPVGGGGSPSDFYLCSLLASGTAALACVFLGVTVDRFGRRGILLLSMTLTGIASLVLLGLWDYLNDAAITTFSVLGLFSSQASAILSTLLASEVIPTTVRGRGLGLIMALGALGGLSCPAQRLHMGHGAFLQHVVLAACALLCILSIMLLPETKRKLLPEVLRDGELCRRPSLLRQPPPNRCDHVPLLATPNPAL
- Kd: 6.67 µM
